# T1: PsLAR (Lathyrus oleraceus, UniProt A0A076G360)
# T1 construct: gene LAR
# T1 sequence (A0A076G360 1-351): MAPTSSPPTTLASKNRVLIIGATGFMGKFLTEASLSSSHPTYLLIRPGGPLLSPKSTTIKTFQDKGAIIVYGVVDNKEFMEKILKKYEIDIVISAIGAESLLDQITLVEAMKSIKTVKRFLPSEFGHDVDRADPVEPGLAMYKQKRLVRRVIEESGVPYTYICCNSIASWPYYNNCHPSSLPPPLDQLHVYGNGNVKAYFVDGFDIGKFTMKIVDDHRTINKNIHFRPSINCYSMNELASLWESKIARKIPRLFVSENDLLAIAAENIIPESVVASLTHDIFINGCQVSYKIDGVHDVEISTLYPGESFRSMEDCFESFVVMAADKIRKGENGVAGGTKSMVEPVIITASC
# Legend:
# [1] = target: T1, PsLAR; assay: coupled PsDFR/PsLAR assay, LC-MS of product; type: biochemical; details: NADPH, pH 6, 40°C
# [2] = substrate: Oc1cc(O)c2cc(O)c(-c3cc(O)c(O)c(O)c3)[o+]c2c1; assay: HPLC-DAD of cis-flavan-3-ol product, Michaelis-Menten; type: biochemical, Lathyrus oleraceus; details: 20 mM NADPH, 100 mM Tris-HCl pH 7, 42°C, 20 min
# Source text: (§1) HPLC-DAD of cis-flavan-3-ol product, Michaelis-Menten on PsANR
# [3] = substrate: Oc1cc(O)c2cc(O)c(-c3ccc(O)c(O)c3)[o+]c2c1; assay: as above; type: biochemical, Lathyrus oleraceus; details: 20 mM NADPH, 100 mM Tris-HCl pH 7, 42°C, 20 min
# Source text: as §1
# [4] = substrate: Oc1ccc(-c2[o+]c3cc(O)cc(O)c3cc2O)cc1; assay: as above; type: biochemical, Lathyrus oleraceus; details: 20 mM NADPH, 100 mM Tris-HCl pH 7, 42°C, 20 min
# Source text: as §1
molecule,measurement,setting,value
Oc1cc(O)c2c(c1)O[C@H](c1ccc(O)c(O)c1)[C@@H](O)C2 [(+)-catechin],"coupled PsDFR/PsLAR assay, LC-MS of product",[1]; substrate made in situ from dihydroquercetin by PsDFR,Only co-incubation of PsDFR and PsLAR could synthesize compounds displaying [M + H]^+ ion for CT
Oc1cc(O)c2c(c1)O[C@H](c1cc(O)c(O)c(O)c1)[C@@H](O)C2 [gallocatechin],"coupled PsDFR/PsLAR assay, LC-MS of product",[1]; substrate made in situ from dihydromyricetin by PsDFR,co-incubation of PsDFR and PsLAR could synthesize compounds displaying [M + H]^+ ion for CT
PsANR (Lathyrus oleraceus) (protein) MASIKEVGKKKACVIGGTGFVASILIKQLLEKGYAVNTTVRDLDNPKKISHLVALKSLGELNLFKAELTVDGDFDAPIAGCELVFQLATPVNFASQDPENDMIKPAIKGVLNVLKACAKAKEVKRVILTSSAAAVTINELKGEDHVMDETNWSDVEFLNAAKPPTWGYPASKVLAEKAAWEFAEKNDIDLITVIPTLTMGPYLTQDMPSSVGLAMSLITGNDFLVNALKGMQFLSGSISITHVEDICRAHIFVAEKESASGRYICCAQNTCVPELAKFFSKRYPQYKVPTKFEDCPSKAKLIIFFEKLIKEGFGFKYGIGETYAQTIEYLKIKGVLKK,Km,[2],183.6 ± 0.2 µM
same,kcat/Km,[2],4.3 M⁻¹ s⁻¹
same,Km,[3],37.0 ± 0.2 µM
same,kcat/Km,[3],13.5 M⁻¹ s⁻¹
same,Km,[4],39.0 ± 0.1 µM
same,kcat/Km,[4],30.7 M⁻¹ s⁻¹
